Numbering of substitutions follows the chain as printed. Read-outs that look alike come from different tables or passages of the source.
B1: SRGAP2A F-BARx-RhoGAP-SH3 (residues 1-799) (domain or fragment)
chain: not shown
B2: SRGAP2A F-BARx (extended F-BAR, residues 1-484) (domain or fragment, human, UniProt O75044 1-484, looked up)
chain: MTSPAKFKKDKEIIAEYDTQVKEIRAQLTEQMKCLDQQCELRVQLLQDLQDFFRKKAEIEMDYSRNLEKLAERFLAKTRSTKDQQFKKDQNVLSPVNCWNLLLNQVKRESRDHTTLSDIYLNNIIPRFVQVSEDSGRLFKKSKEVGQQLQDDLMKVLNELYSVMKTYHMYNADSISAQSKLKEAEKQEEKQIGKSVKQEDRQTPRSPDSTANVRIEEKHVRRSSVKKIEKMKEKRQAKYTENKLKAIKARNEYLLALEATNASVFKYYIHDLSDLIDQCCDLGYHASLNRALRTFLSAELNLEQSKHEGLDAIENAVENLDATSDKQRLMEMYNNVFCPPMKFEFQPHMGDMASQLCAQQPVQSELVQRCQQLQSRLSTLKIENEEVKKTMEATLQTIQDIVTVEDFDVSDCFQYSNSMESVKSTVSETFMSKPSIAKRRANQQETEQFYFTKMKEYLEGRNLITKLQAKHDLLQKTLGESQRT
modifications: fluorescently labeled (in the MST only)
B3: SRGAP2C F-BAR portion (F-BARC, SRGAP2C residues 1-355) (domain or fragment, human, UniProt P0DJJ0 1-355, looked up)
chain: MTSPAKFKKDKEIIAEYDTQVKEIRAQLTEQMKCLDQQCELRVQLLQDLQDFFRKKAEIEMDYSRNLEKLAEHFLAKTRSTKDQQFKKDQNVLSPVNCWNLLLNQVKWESRDHTTLSDIYLNNIIPRFVQVSEDSGRLFKKSKEVGQQLQDDLMKVLNELYSVMKTYHMYNADSISAQSKLKEAEKQEEKQIGKSVKQEDRQTPCSPDSTANVRIEEKHVRRSSVKKIEKMKEKHQAKYTENKLKAIKAQNEYLLALEATNASVFKYYIHDLSDLIDQCCDLGYHASLNRALRTFLSAELNLEQSKHEGLDAIENAVENLDATSDKQRLMEMYNNVFCPPMKFEFQPHMGDMASQ
B4: SRGAP2A F-BAR domain (F-BARA, residues 1-355) (domain or fragment, human, UniProt O75044 1-355, looked up)
chain: B3 chain with H73R, W108R, C205R, H235R, Q250R
modifications: fluorescently labeled (in the MST only)

Assays:
SEC [1] = target: the molecule itself; test: SEC
[2] = target: SRGAP2A RhoGAP-SH3 domains (isolated) (human, UniProt O75044 485-1071); test: MST
[3] = target: B1; test: SEC-MALS
SEC [4] = target: the molecule itself; test: SEC; remark: listed apart in the source

Kd [2] | binding result [3] | Binder | stoichiometry N (SEC [1]) | stoichiometry N (SEC [4])
 |  | B1 | 2 | 
3.5 µM |  | B2 |  | 
 | binds | B3 |  | 2
3 µM |  | B4 |  | 2

Reference: publication PMC5435084 (Molecular Biology and Evolution, 2017)
